Drawing on publication PMC7835884, this text covers stoichiometry N and specificity constant (Vmax/Km) of acyl-CoA carboxylation by purified TfAcCCB, made with or without co-expressed TfAcCCE, mixed in vitro with purified TfAcCCA (acetyl-, propionyl- and butyryl-CoA) for three substances.

“And” between values parts separate entries of the source, which are not always exact repeats. Equal entries are not always repeated.

The target in assay [1] is N-terminal 6X-His tagged TfAcCCB (carboxyltransferase subunit of Thermobifida fusca YX acyl-CoA carboxylase) (Thermobifida fusca YX). Description: pull-down; subunits co-expressed in E. coli; Ni-NTA affinity chromatography via the His-tag on TfAcCCB; SDS-PAGE with Coomassie staining and densitometry, or Western blot with anti-S-tag antibody (Figure 1A, 1B).
Assay [2] concerns the target TfAcCCA (biotin carboxylase / biotin carboxyl carrier subunit of Thermobifida fusca YX acyl-CoA carboxylase), without tag (Thermobifida fusca YX). Description: SEC; Ni-NTA purified holoenzyme from co-expression of all three subunits (wild-type or D427I TfAcCCB); Superdex 200 10/300 GL; 100 mM potassium phosphate pH 7.6, 0.75 mM DTT, 1 mM EDTA, 20% glycerol; apparent molecular weights against standards; peaks analysed by SDS-PAGE (Figure 2A, 2B). Background: SEC sorts molecules by how far they enter the pores of the column.

Assay [3] addresses N-terminal 6X-His tagged TfAcCCB (carboxyltransferase subunit of Thermobifida fusca YX acyl-CoA carboxylase) (Thermobifida fusca YX). Description: SEC; Ni-NTA purified His-tagged TfAcCCB-TfAcCCE subcomplex or His-tagged TfAcCCA; Superdex 200 10/300 GL; 100 mM potassium phosphate pH 7.6, 0.75 mM DTT, 1 mM EDTA, 20% glycerol; apparent molecular weights against standards (Figure 2C, 2D).

The target is the same in assay [4]. Description: SEC; Ni-NTA purified holoenzyme from co-expression of all three subunits (wild-type or D427I TfAcCCB); Superdex 200 10/300 GL; 100 mM potassium phosphate pH 7.6, 0.75 mM DTT, 1 mM EDTA, 20% glycerol; apparent molecular weights against standards; peaks analysed by SDS-PAGE (Figure 2A, 2B).
Assay [5] shares this target.

A word on the stoichiometry N: it is the number of molecules, sites or subunits per partner or assembly.

Take “TfAcCCA (biotin carboxylase / biotin carboxyl carrier subunit of Thermobifida fusca YX acyl-CoA carboxylase), without tag (enzyme)”: the stoichiometry N in assay [1] was 1 molar ratio; in assay [2], 3 and 6 and 9.

“N-terminal 6X-His tagged TfAcCCB (carboxyltransferase subunit of Thermobifida fusca YX acyl-CoA carboxylase) (enzyme)”: the stoichiometry N is 6 and 12 and 18 in assay [3]; 6 and 9 and 3 in assay [4].

“TfAcCCE (non-catalytic subunit of Thermobifida fusca YX acyl-CoA carboxylase), without tag (natural protein)”: the specificity constant (Vmax/Km) of acyl-CoA carboxylation by purified TfAcCCB, made with or without co-expressed TfAcCCE, mixed in vitro with purified TfAcCCA (acetyl-, propionyl- and butyryl-CoA) in assay [5] worked out at 20 fold. The substance also came in with a stoichiometry N in assay [1] of 1 molar ratio.
